Measured values: article PMC8294582
Residue numbers refer to the chain shown, from its start. Names and notes keep the numbering of the source.

B1: truncated form of human WT SETD2, FLAG-tagged (tSETD2-FLAG, aa1418–2564), Q9BYW2 H2514A (protein)
chain: DGELQDRKKVRVEVEQGETSVPPGSALVGPSCVMDDFRDPQRWKECAKQGKMPCYFDLIEENVYLTERKKNKSHRDIKRMQCECTPLSKDERAQGEIACGEDCLNRLLMIECSSRCPNGDYCSNRRFQRKQHADVEVILTEKKGWGLRAAKDLPSNTFVLEYCGEVLDHKEFKARVKEYARNKNIHYYFMALKNDEIIDATQKGNCSRFMNHSCEPNCETQKWTVNGQLRVGFFTTKLVPSGSELTFDYQFQRYGKEAQKCFCGSANCRGYLGGENRVSIRAAGGKMKKERSRKKDSVDGELEALMENGEGLSDKNQVLSLSRLMVRIETLEQKLTCLELIQNTHSQSCLKSFLERHGLSLLWIWMAELGDGRESNQKLQEEIIKTLEHLPIPTKNMLEESKVLPIIQRWSQTKTAVPPLSEGDGYSSENTSRAHTPLNTPDPSTKLSTEADTDTPKKLMFRRLKIISENSMDSAISDATSELEGKDGKEDLDQLENVPVEEEEELQSQQLLPQQLPECKVDSETNIEASKLPTSEPEADAEIEPKESNGTKLEEPINEETPSQDEEEGVSDVESERSQEQPDKTVDISDLATKLLDSWKDLKEVYRIPKKSQTEKENTTTERGRDAVGFRDQTPAPKTPNRSRERDPDKQTQNKEKRKRRSSLSPPSSAYERGTKRPDDRYDTPTSKKKVRIKDRNKLSTEERRKLFEQEVAQREAQKQQQQMQNLGMTSPLPYDSLGYNAPHHPFAGYPPGYPMQAYVDPSNPNAGKVLLPTPSMDPVCSPAPYDHAQPLVGHSTEPLSAPPPVPVVPHVAAPVEVSSSQYVAQSDGVVHQDSSVAVLPVPAPGPVQGQNYSVWDSNQQSVSVQQQYSPAQSQATIYYQGQTCPTVYGVTSPYSQTTPPIVQSYAQPSLQYIQGQQIFTAHPQGVVVQPAAAVTTIVAPGQPQPLQPSEMVVTNNLLDLPPPSPPKPKTIVLPPNWKTARDPEGKIYYYHVITRQTQWDPPTWESPGDDASLEHEAEMDLGTPTYDENPMKASKKPKTAEADTSSELAKKSKEVFRKEMSQFIVQCLNPYRKPDCKVGRITTTEDFKHLARKLTAGVMNKELKYCKNPEDLECNENVKHKTKEYIKKYMQKFGAVYKPKEDTELE
B2: truncated form of human WT SETD2, FLAG-tagged (tSETD2-FLAG, aa1418–2564), Q9BYW2 V2483A (protein)
chain: B1 chain with V1066A, A1097H
B3: truncated form of human WT SETD2, FLAG-tagged (tSETD2-FLAG, aa1418–2564), Q9BYW2 F2505A (protein)
chain: B1 chain with F1088A, A1097H
B4: truncated form of human WT SETD2, FLAG-tagged (tSETD2-FLAG, aa1418–2564), Q9BYW2 R2510H (protein)
chain: B1 chain with R1093H, A1097H

target: RNA polymerase II, P24928; experiment: coimmunoprecipitation (anti-FLAG beads, Western blot quantification); settings: chain shown with the change; tSETD2-FLAG on anti-Flag beads incubated with HEK293 cell lysate; parent: est. 82; read off a plot

Binder	response (% of input bound)
B1	17
B2	76
B3	12
B4	84
